# Source: article PMC9237525, “Solution Structure of Tubuliform Spidroin N-Terminal Domain and Implications for pH Dependent Dimerization” (Frontiers in Molecular Biosciences, 2022)
# B1: Argiope argentata tubuliform spidroin (TuSp 1) N-terminal domain, wild type (domain or fragment)
# chain: AVTAVPSVFSSPNLASGFLQCLTFGIGNSPAFPTQEQQDLDAIAQVILNAVSTNTGATASARAQALSTALASSLTDLLIAESAESNYNNQLSELTGILSNCFIQTTGSDNPAFVSRIQSLISVLSQNTDVNIISTA
# notes: Tubuliform spidroin 1 (TuSp 1) N-terminal domain, Argiope argentata; 136 residues (count printed for the A70E variant); Expressed from pET-32a-HisTrxHisNT; Intramolecular disulfide C22-C102; 15N- or 13C,15N-labelled for NMR; Calculated mass 14.1 kDa (monomer); also called TuSp NT; wt TuSp NT; not shown: His-Trx, N-terminal, cleaved
# Assays:
# [1] = biological target: Argiope argentata TuSp NT E37Q E82Q E85Q (Argiope argentata); assay: SEC; Superdex 75 Increase 10/300 GL, 50 µl at 3 mg/ml, 20 mM NaOAc, 20 mM NaCl, pH 5.5
# [2] = biological target: Argiope argentata TuSp NT E37Q E82Q (Argiope argentata); assay: as above
# [3] = biological target: Argiope argentata TuSp NT E37Q E82Q E85Q D130N (Argiope argentata); assay: as above
# [4] = biological target: the molecule itself; assay: 15N NMR relaxation (rotational correlation time); pH 5.5; T1 and T2 of backbone amides, 800 MHz; molecular weight estimated from the correlation time
molecule,measurement,setting,value
Argiope argentata TuSp NT E37Q E82Q E85Q (domain or fragment),stoichiometry N,[1],2
Argiope argentata TuSp NT E37Q E82Q (domain or fragment),stoichiometry N,[2],2
Argiope argentata TuSp NT E37Q E82Q E85Q D130N (domain or fragment),stoichiometry N,[3],2
B1,stoichiometry N,[4],2
